Data: patent publication US20080242590A1, “New Method 706” (ASTRAZENECA AB, priority 2007, published 2008)

Columns and labels:
[1] = Observations of animal health (Example 25); assay type: in vivo, C57BL/6 mice; details: 5 mg/kg single i.v., up to 168 hours
Experimental: (§1) 20-21 weeks old female C57BL/6 mice (8 mice/group) received vehicle or hFc-Nep at 5 mg/kg as a single intravenous injection and Aβ40 was analysed at different time points after injection (between 1.5-168 hours, i.e., up to 1 week). The γ-secretase inhibitor M-550426 was given per orally and the animals were treated for 3 hours. A blank group was also included in the study. […] Blood collection, plasma processing and measurement of mouse Aβ40 levels in plasma were basically as described in Example 27.

amyloid β 1-40 = assay: Degradation of Aβ 1-40 in human plasma pool (Example 28); assay type: biochemical; details: room temperature, 1 hour
Experimental: (§2) Blood from twelve individuals (6 females and 6 males) were collected into pre-chilled heparin-plasma tubes at the healthcare centre (AstraZeneca) at three different time points. Plasma was prepared by centrifugation at 2500×g for 20 min at 4° C. Plasma samples were collected and transferred to pre-chilled polypropylene tubes and immediately frozen and stored at −70° C. prior to use. Plasma was thawed and pooled from 12 individuals just before the experiment. Aβ 1-40 and 1-42 in plasma pool was degraded by human Fc-Nep or mouse Fc-Nep with corresponding vehicles (50 mM Tris-HCl, 150 mM NaCl pH 7.5). The following final concentrations of the Fc-Nep constructs were used, 100, 32, 10, 3.2, 1, 0.3, 0.1 and […] and the degradation occurred at room temperature for 1 hour while shaking on an orbital shaker. The enzymatic reaction was stopped by adding Phosphoramidone (10 μM final concentration). Concentration of amyloid β 1-40 in human plasma pool was measured using ELISA kit (Biosource; KHB3481) according to the manufacturers instructions.

mouse Aβ40 = assay: Mouse Aβ40 in plasma, time and dose response 1.5 and 3 hours (Example 24); assay type: in vivo, C57BL/6 mice
Experimental: The objective with this study was to evaluate the time and dose-response effect of hFc-Nep in plasma of female C57BL/6 mice after an acute treatment. The specific purpose is to find an effect on plasma Aβ40 and to correlate effect to exposure level of hFc-Nep in plasma. The γ-secretase inhibitor M-550426 is included as a positive control.
(§3) 13 weeks old female C57BL/6 mice (10 mice/group) received vehicle or hFc-Nep at 1 or 5 mg/kg as a single intravenous injection. M-550426 was administrated per orally at 300 μmol/kg 3 hours before termination. A blank group was also included in the study.
(§4) Blood was sampled from vehicle- and compound-treated animals at 1.5 and 3 hours after dose. Blood was withdrawn from anaesthetized mice by heart puncture into pre-chilled microtainer tubes containing EDTA. Blood samples were immediately put on ice prior to centrifugation. Plasma was prepared by centrifugation for 10 minutes at approximately 3000×g at +4° C. within 20 minutes from sampling. After blood sampling, mice were terminated. […] Mouse Aβ40 levels in plasma were analysed by commercial ELISA kit obtained from Biosource. The concentrations of Fc-Nep in plasma and in the formulations were assayed according to the procedures described in Example 27.

Aβ 1-42 = assay: Degradation of Aβ 1-42 in human plasma pool (Example 28); assay type: biochemical; details: room temperature, 1 hour
Experimental: as §2
A final concentration of 4.7 mM EDTA was added to the tubes before the concentration of Aβ42 was analyzed using ELISA kit Innotest® β-Amyloid1-42 (Innogenetics, lot#177462, ref#80177) according to the manufacturers instructions.

Aβ40 = assay: Plasma Aβ40 time-response after single i.v. dose (Example 25); assay type: in vivo, C57BL/6 mice; details: 5 mg/kg single i.v., all time points (1.5, 6, 12, 24, 36, 72 and 168 hours)
Experimental: The objective of this study was to evaluate the time-response relationship of the hFc-Nep in plasma of female C57BL/6 mice after a single dose. The specific purpose is to find how long the reducing effect of hFc-Nep stays in the plasma, and to correlate the effect to the level of exposure of test compound in plasma. The γ-secretase inhibitor M-550426 is included as a positive compound.
as §1

[2] = Plasma exposure (Example 24); assay type: in vivo, C57BL/6 mice
Experimental: as §3, §4

[3] = highest concentration 100 μg/ml

B1: Fc-Neprilysin: extracellular domain of human Neprilysin fused to the human IgG2 Fc domain (including hinge), Fc at N-terminus; SEQ ID NO 11 (protein)
chain: ERKCCVECPPCPAPPVAGPSVFLFPPKPKDTLMISRTPEVTCVVVDVSHEDPEVQFNWYVDGVEVHNAKTKPREEQFNSTFRVVSVLTVVHQDWLNGKEYKCKVSNKGLPAPIEKTISKTKGQPREPQVYTLPPSREEMTKNQVSLTCLVKGFYPSDIAVEWESNGQPENNYKTTPPMLDSDGSFFLYSKLTVDKSRWQQGNVFSCSVMHEALHNHYTQKSLSLSPGKYDDGICKSSDCIKSAARLIQNMDATTEPCTDFFKYACGGWLKRNVIPETSSRYGNFDILRDELEVVLKDVLQEPKTEDIVAVQKAKALYRSCINESAIDSRGGEPLLKLLPDIYGWPVATENWEQKYGASWTAEKAIAQLNSKYGKKVLINLFVGTDDKNSVNHVIHIDQPRLGLPSRDYYECTGIYKEACTAYVDFMISVARLIRQEERLPIDENQLALEMNKVMELEKEIANATAKPEDRNDPMLLYNKMTLAQIQNNFSLEINGKPFSWLNFTNEIMSTVNISITNEEDVVVYAPEYLTKLKPILTKYSARDLQNLMSWRFIMDLVSSLSRTYKESRNAFRKALYGTTSETATWRRCANYVNGNMENAVGRLYVEAAFAGESKHVVEDLIAQIREVFIQTLDDLTWMDAETKKRAEEKALAIKERIGYPDDIVSNDNKLNNEYLELNYKEDEYFENIIQNLKFSQSKQLKKLREKVDKDEWISGAAVVNAFYSSGRNQIVFPAGILQPPFFSAQQSNSLNYGGIGMVIGHEITHGFDDNGRNFNKDGDLVDWWTQQSASNFKEQSQCMVYQYGNFSWDLAGGQHLNGINTLGENIADNGGLGQAYRAYQNYIKKNGEEKLLPGLDLNHKQLFFLNFAQVWCGTYRPEYAVNSIKTDVHSPGNFRIIGTLQNSAEFSEAFHCRKNSYMNPEKKCRVW
- Observations of the animal health [1]: no overt adverse effects
- Degradation of amyloid β 1-40 compared to plasma without treatment (amyloid β 1-40; [3]): 66%
- EC50 (amyloid β 1-40): 580 nM
- Reduction of mouse Aβ40 in plasma compared to vehicle (mouse Aβ40; 1 mg/kg i.v., 1.5 hours, p=0.1638): 17%
- Reduction of mouse Aβ40 in plasma compared to vehicle (mouse Aβ40; 1 mg/kg i.v., 3 hours, p<0.005): 36%
- Reduction of mouse Aβ40 in plasma compared to vehicle (mouse Aβ40; 5 mg/kg i.v., 1.5 hours, p<0.0001): 76%
- Reduction of mouse Aβ40 in plasma compared to vehicle (mouse Aβ40; 5 mg/kg i.v., 3 hours, p<0.0001): 72%
- Degradation of Aβ 1-42 compared to plasma without treatment (Aβ 1-42; [3]): 28%
- EC50 (Aβ 1-42): 250 nM
- Aβ40 reduction in plasma compared to vehicle (Aβ40): 67-80%
- Mean plasma exposure ([2]; 1 mg/kg i.v., 1.5 hours): 14 µg/mL
- Mean plasma exposure ([2]; 1 mg/kg i.v., 3 hours): 17 µg/mL
- Mean plasma exposure ([2]; 5 mg/kg i.v., 1.5 hours): 89 µg/mL
- Mean plasma exposure ([2]; 5 mg/kg i.v., 3 hours): 78 µg/mL
